Reference: US20130266566A1 (AbbVie / Abbott, published 2013)

Legend:
mouse PAI-1 [1] = target: T1, mouse PAI-1 (mouse, UniProt P22777 24-401); test: cell-based or functional assay
T1 sequence: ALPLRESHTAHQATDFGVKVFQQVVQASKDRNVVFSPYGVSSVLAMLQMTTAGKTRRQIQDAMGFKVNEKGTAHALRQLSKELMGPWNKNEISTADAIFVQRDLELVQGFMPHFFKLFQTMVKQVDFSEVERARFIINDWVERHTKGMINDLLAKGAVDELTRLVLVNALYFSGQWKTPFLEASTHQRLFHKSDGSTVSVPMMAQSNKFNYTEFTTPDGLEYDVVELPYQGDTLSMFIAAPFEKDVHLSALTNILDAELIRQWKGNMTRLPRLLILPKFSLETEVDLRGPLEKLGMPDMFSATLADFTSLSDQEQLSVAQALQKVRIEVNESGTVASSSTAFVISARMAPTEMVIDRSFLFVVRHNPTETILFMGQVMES

mouse PAI-1 [2] = target: T1, mouse PAI-1; test: cell-based or functional assay; remark: listed apart in the source
cynomolgus PAI-1 [3] = target: T2, cynomolgus PAI-1 (cynomolgus, UniProt P05121 24-402 (human entry), limits assumed); test: cell-based or functional assay
cynomolgus PAI-1 [4] = target: T2, cynomolgus PAI-1; test: cell-based or functional assay; remark: listed apart in the source
[5] = target: active human PAI-1, recombinant, wild-type, non-glycosylated (E. coli) (human, UniProt P05121 24-402); test: cell-based or functional assay
rat PAI-1 = target: T3, rat PAI-1 (rat, UniProt P20961 24-402); test: cell-based or functional assay
T3 sequence: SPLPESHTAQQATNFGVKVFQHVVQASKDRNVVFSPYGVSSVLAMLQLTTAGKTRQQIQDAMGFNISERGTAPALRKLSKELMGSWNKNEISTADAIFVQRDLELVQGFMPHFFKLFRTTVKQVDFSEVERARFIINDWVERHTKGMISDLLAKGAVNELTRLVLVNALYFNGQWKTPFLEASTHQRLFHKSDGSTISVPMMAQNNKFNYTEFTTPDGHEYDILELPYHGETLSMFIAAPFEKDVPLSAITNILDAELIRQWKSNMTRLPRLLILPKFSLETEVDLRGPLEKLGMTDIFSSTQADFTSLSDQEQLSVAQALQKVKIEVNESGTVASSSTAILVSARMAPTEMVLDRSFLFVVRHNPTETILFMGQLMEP

[6] = target: T4, Antibody 16 IgG1, not germlined; test: competition binding assay: Antibody 16 IgG adsorbed to the plate, biotinylated active human PAI-1 plus a titration of the unlabelled competitor, streptavidin-Europium detection
T4 construct: IgG1; also called Ab 16

B1: Antibody 08 scFv (scFv)
chain: QVQLVQSGAEVKKPGSSVKVSCKASGGTFSSYAISWVRQAPGQGLEWMGGIIPTFGTANYAQKFQGRVTITADESTSTAYMELSSLRSEDTAVYYCARERRQWLEGHFDYWGRGTLVTVSSDIQMTQSPSTLSASVGDRVTITCRASEGIYHNLAWYQQKPGKAPKLLIYKASSLASGVPSRFSGSRSGTEFTLTISSLQPDDFATYYCQQYSNYPLTFGGGTKVEIK
HT-1080 Exo PAI-1 (IC50 in nM) mouse (mouse PAI-1 [1]): 26.2 nM
IC50, mouse chromogenic assay (FIG. 2d) (mouse PAI-1 [2]): 2.6 nM
IC50, cyno chromogenic assay (FIG. 2b) (cynomolgus PAI-1 [3]): 0.8 nM
Chromogenic (IC50 in nM) cyno (cynomolgus PAI-1 [4]): 1 nM
Chromogenic IC50 ratio cyno/human (cynomolgus PAI-1 [4]): 0.3 fold

B2: PICK167_A01-fgl IgG1 (antibody, V domains shown)
VH: QVQLVQSGAEVKKPGSSVKVSCKASGGTFSSYAISWVRQAPGQGLEWMGGIIPTFGTANYAQKFQGRVTITADESTSTAYMELSSLRSEDTAVYYCARERRQWLEGHFDYWGRGTLVTVSS
VL: DIQMTQSPSTLSASVGDRVTITCRASEGIYHNLAWYQQKPGKAPKLLIYKASSLASGVPSRFSGSRSGTEFTLTISSLQPDDFATYYCQQYSNYPLTFGGGTKVEIKR
pIC50, HT1080 plasminogen activation assay [5]: 7.87 pIC50
pIC50, HT1080 plasminogen activation assay (rat PAI-1): 7.64 pIC50

B3: rabbit PAI-1 (other)
chain: SYPHQPQLTTAGETQQQIQAAMRFKIDEQSTAPALRHLHKELMGPWNKDEISTTDAIFVQRDLKLVQGFMPHFFRLFRTTVKQVDFSDVQRARFIINDWVERHTKGMISDLLGEGAMDQLTRLLLVNALYFNGQWKTPFSKSGTHHRLFHKSDGSTISVPMMAQTNKFNYTEFLTPDGHYYDILELPYHGETLSMFIAAPYEKQVPLSALTNILSAQLISQWKGNMTRVTRLLVLPKFSLESEVDLRAPLENLGMTDMFRPGQADFSNLSDQELLHVSRALQKVKIEVNESGTMASSSTVILVSARMAPEEIIMDRPFLFVVRHNPTGTILFLGQVMEL
IC50 (read off the curve) [6]: ~3 nM
